Test results from publication PMC3307221 (Analytical Chemistry, 2012).

Biological target: protective antigen of anthrax (Bacillus anthracis, strain , UniProt P13423)
Assay: SPR

protective antigen of anthrax, sequence (P13423 whole entry, looked up): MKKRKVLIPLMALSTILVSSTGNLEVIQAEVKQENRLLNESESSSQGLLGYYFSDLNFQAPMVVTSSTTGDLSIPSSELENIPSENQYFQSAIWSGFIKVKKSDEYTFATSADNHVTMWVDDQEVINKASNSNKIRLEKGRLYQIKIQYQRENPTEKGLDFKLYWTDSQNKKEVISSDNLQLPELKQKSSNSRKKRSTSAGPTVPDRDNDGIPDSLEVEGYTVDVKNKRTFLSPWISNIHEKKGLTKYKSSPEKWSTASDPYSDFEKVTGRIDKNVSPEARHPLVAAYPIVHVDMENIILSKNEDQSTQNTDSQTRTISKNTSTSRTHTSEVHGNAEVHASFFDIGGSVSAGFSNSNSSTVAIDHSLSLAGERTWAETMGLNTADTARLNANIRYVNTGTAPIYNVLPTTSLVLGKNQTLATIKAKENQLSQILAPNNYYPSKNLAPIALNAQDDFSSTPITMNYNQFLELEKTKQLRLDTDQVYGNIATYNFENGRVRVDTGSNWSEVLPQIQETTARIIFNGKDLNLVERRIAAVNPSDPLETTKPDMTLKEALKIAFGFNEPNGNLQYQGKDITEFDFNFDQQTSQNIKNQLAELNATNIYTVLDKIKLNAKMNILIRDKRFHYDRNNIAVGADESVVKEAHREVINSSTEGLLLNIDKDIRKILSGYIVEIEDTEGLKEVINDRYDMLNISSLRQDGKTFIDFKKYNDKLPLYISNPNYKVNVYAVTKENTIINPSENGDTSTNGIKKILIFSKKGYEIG

B1: M18 scFv (scFv, V domains shown)
VH: EVQLQQSGPELVKPGASVKISCKDSGYAFNSSWMNWVKQRPGQGLEWIGRIYPGDGDSNYNGKFEGKAILTADKSSSTAYMQLSSLTSVDSAVYFCARSGLLRYAMDYWGQGTSVTVSS
VL: DIQMTQTTSSLSASLGDRVTVSCRASQDIRNYLNWYQQKPDGTVKFLIYYTSRLQPGVPSRFSGSGSGTDYSLTINNLEQEDIGTYFCQQGNTPPWTFGGGTKLEIK
koff: 0.00011 s⁻¹ | kon: 597000 M⁻¹ s⁻¹
